Data reported in paper PMC3730827 (Cell, 2013).

Experiments:
Assay in all cases: cryo-EM structure
[1] = target: ribosomal protein S3e (rabbit 40S subunit) (rabbit, UniProt G1TNM3 1-243)
[2] = target: ribosomal protein S23e (rabbit 40S subunit) (rabbit, UniProt G1SZ47 1-143)
[3] = target: ribosomal protein S10e (rabbit 40S subunit) (rabbit, UniProt G1T168 1-165)
[4] = target: ribosomal protein S12e (rabbit 40S subunit) (rabbit, UniProt G1SFR8 1-132)

Measured: binding result

B1: DHX29, recombinant human (enzyme)
chain: MGGKNKKHKAPAAAVVRAAVSASRAKSAEAGIAGEAQSKKPVSRPATAAAAAAGSREPRVKQGPKIYSFNSTNDSSGPANLDKSILKVVINNKLEQRIIGVINEHKKQNNDKGMISGRLTAKKLQDLYMALQAFSFKTKDIEDAMTNTLLYGGDLHSALDWLCLNLSDDALPEGFSQEFEEQQPKSRPKFQSPQIQATISPPLQPKTKTYEEDPKSKPKKEEKNMEVNMKEWILRYAEQQNEEEKNENSKSLEEEEKFDPNERYLHLAAKLLDAKEQAATFKLEKNKQGQKEAQEKIRKFQREMETLEDHPVFNPAMKISHQQNERKKPPVATEGESALNFNLFEKSAAATEEEKDKKKEPHDVRNFDYTARSWTGKSPKQFLIDWVRKNLPKSPNPSFEKVPVGRYWKCRVRVIKSEDDVLVVCPTILTEDGMQAQHLGATLALYRLVKGQSVHQLLPPTYRDVWLEWSDAEKKREELNKMETNKPRDLFIAKLLNKLKQQQQQQQQHSENKRENSEDPEESWENLVSDEDFSALSLESANVEDLEPVRNLFRKLQSTPKYQKLLKERQQLPVFKHRDSIVETLKRHRVVVVAGETGSGKSTQVPHFLLEDLLLNEWEASKCNIVCTQPRRISAVSLANRVCDELGCENGPGGRNSLCGYQIRMESRACESTRLLYCTTGVLLRKLQEDGLLSNVSHVIVDEVHERSVQSDFLLIILKEILQKRSDLHLILMSATVDSEKFSTYFTHCPILRISGRSYPVEVFHLEDIIEETGFVLEKDSEYCQKFLEEEEEVTINVTSKAGGIKKYQEYIPVQTGAHADLNPFYQKYSSRTQHAILYMNPHKINLDLILELLAYLDKSPQFRNIEGAVLIFLPGLAHIQQLYDLLSNDRRFYSERYKVIALHSILSTQDQAAAFTLPPPGVRKIVLATNIAETGITIPDVVFVIDTGRTKENKYHESSQMSSLVETFVSKASALQRQGRAGRVRDGFCFRMYTRERFEGFMDYSVPEILRVPLEELCLHIMKCNLGSPEDFLSKALDPPQLQVISNAMNLLRKIGACELNEPKLTPLGQHLAALPVNVKIGKMLIFGAIFGCLDPVATLAAVMTEKSPFTTPIGRKDEADLAKSALAMADSDHLTIYNAYLGWKKARQEGGYRSEITYCRRNFLNRTSLLTLEDVKQELIKLVKAAGFSSSTTSTSWEGNRASQTLSFQEIALLKAVLVAGLYDNVGKIIYTKSVDVTEKLACIVETAQGKAQVHPSSVNRDLQTHGWLLYQEKIRYARVYLRETTLITPFPVLLFGGDIEVQHRERLLSIDGWIYFQAPVKIAVIFKQLRVLIDSVLRKKLENPKMSLENDKILQIITELIKTENN
binds: all assays above
